Results taken from the supplement of paper PMC10724198.
± gives the standard deviation of the averaged measurements.

Tested on: Saccharomyces cerevisiae
Test: protein stability index of tFT-peptide fusion (C-terminal peptide) (PSI (0-1 scale)); higher = more stable (slower turnover)
Details: genetic background: wild type; temperature: 30 C
Method: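 Multiplexed protein stability (MPS) profiling in S. cerevisiae. Random 12-aa peptides (tFT-X12 library) are fused to the C-terminus of a sfGFP-mCherry tandem fluorescent timer, after mCherry and a GGGS linker. Cells are FACS-sorted into 8 mCherry/sfGFP bins and deep-sequenced. The protein stability index (PSI) is the read-weighted bin average, scaled from 0 (unstable) to 1 (stable). Only peptides with >10 reads are reported; cells were grown at 30 °C in SC-His with glucose.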
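Further: PSI is a weighted mean of sequencing reads over stability bins, variants kept only with over 10 reads, mCherry proximal and sfGFP distal, peptide attached via GGGS linker.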

Sequence | protein stability index
GDDRGTSKCCLT | 0.702 ± 0.068
GDIRLTGLSIVS | 0.638 ± 0.031
GDSGVWGPMGLW | 0.732 ± 0.033
GDSSSCSSYVYL | 0.651 ± 0.026
GDSVNSRALALS | 0.732 ± 0.072
GDWIYRMDRILI | 0.816 ± 0.035
GDWLVVRLVPSK | 0.728 ± 0.013
GDWSYIVGIKYY | 0.626 ± 0.0078
GEALVWGHGRLS | 0.741 ± 0.041
GEGALGLRENLQ | 0.665 ± 0.021
GEGEAVREMRGV | 0.645 ± 0.025
GEGLGGGRGRRW | 0.653 ± 0.026
GEGRGDKGHGWT | 0.706 ± 0.19
GELCGHSRALHG | 0.676 ± 0.071
GEPGQTSGREKT | 0.641 ± 0.014
GEPGRLNSSLFA | 0.678 ± 0.051
GERGTRAERAGA | 0.682 ± 0.032
GERLVGGWHIWN | 0.706 ± 0.015
GESPSTIRSVYS | 0.609 ± 0.038
GESWGGVGDVRR | 0.762 ± 0.028
GETVGCARLRLS | 0.566 ± 0.023
GEVGAVVGESFV | 0.622 ± 0.071
GEVVGRCGAWVC | 0.611 ± 0.033
GEVVRGGEWGLD | 0.686 ± 0.057
GFAAPSRPACLP | 0.696 ± 0.017

Sequence | protein stability index
GFACRSGSFWST | 0.848 ± 0.15
GFFRGMLEGINA | 0.726 ± 0.073
GFGEFVLSSGWG | 0.743 ± 0.018
GFGRGRRGLEEN | 0.695 ± 0.024
GFKDRCKDEKSL | 0.713 ± 0.11
GFLGCGSGCGWG | 0.744 ± 0.057
GFMRGVREKSSR | 0.701 ± 0.0073
GFPILSGLAVVR | 0.6578 ± 0.0055
GFPPSPPPPSPL | 0.741 ± 0.085
GFRGILFPVGRS | 0.736 ± 0.03
GFSCLALFCRVD | 0.587 ± 0.019
GFVCRRFRFGCI | 0.634 ± 0.037
GFYEVLRNMFVI | 0.589 ± 0.035
GGAAGGGRGGDG | 0.62 ± 0.069
GGAGLGSRSSAL | 0.743 ± 0.008
GGAGSVAGVWAV | 0.673 ± 0.069
GGASGGAGEGVG | 0.623 ± 0.063
GGCFGGVGVGSG | 0.7122 ± 0.0045
GGCGGVGGACVV | 0.738 ± 0.086
GGCGGVGGWGVA | 0.712 ± 0.066
GGCKSLYFEWGR | 0.734 ± 0.01
GGCRSVGWGREG | 0.676 ± 0.029
GGCTVLRASIFA | 0.597 ± 0.0063
GGCVGVLGGWGF | 0.6827 ± 0.0032
GGEGAAWAGGVG | 0.558 ± 0.028

Sequence | protein stability index
GGEGMTCPGGGA | 0.693 ± 0.039
GGFARGRDGWQL | 0.712 ± 0.0013
GGFDDIYVPIFV | 0.694 ± 0.012
GGFFPRISSLTV | 0.707 ± 0.054
GGFGEFTWAEAA | 0.768 ± 0.0087
GGFGVLGLGVVG | 0.6963 ± 0.0058
GGFPVGLVSGFC | 0.641 ± 0.032
GGFVVVGGVVGV | 0.72 ± 0.013
GGFWLGVGSRVG | 0.711 ± 0.06
GGGAEGGVRGGG | 0.664 ± 0.027
GGGAGGGSDRVV | 0.736 ± 0.0096
GGGAGRGGVVVR | 0.685 ± 0.023
GGGAGVTLSADG | 0.682 ± 0.059
GGGARCGWGGRM | 0.7 ± 0.011
GGGARREGAGRG | 0.6752 ± 0.0064
GGGCLRGFWCVW | 0.724 ± 0.046
GGGEKVMVVGHG | 0.709 ± 0.013
GGGERTAGVGQT | 0.733 ± 0.05
GGGGARRLAVGQ | 0.678 ± 0.015
GGGGETGRERKD | 0.655 ± 0.0061
GGGGGGGAGGSV | 0.673 ± 0.0081
GGGGGGSAVEGG | 0.674 ± 0.066
GGGGGGVECRVG | 0.671 ± 0.086
GGGGGGWSGACL | 0.716 ± 0.08
GGGGGVGVVRVG | 0.66 ± 0.032

Sequence | protein stability index
GGGGIREERVRE | 0.766 ± 0.19
GGGGPVWREPGT | 0.761 ± 0.01
GGGGQVWSCRLC | 0.678 ± 0.077
GGGGSGGAGGGG | 0.641 ± 0.0089
GGGGVVAGVCGG | 0.667 ± 0.098
GGGGVVGVVRVG | 0.658 ± 0.044
GGGGVVVVQGAG | 0.725 ± 0.058
GGGLGGGWGVWG | 0.657 ± 0.025
GGGLGGREPGGS | 0.742 ± 0.15
GGGLGWVWVKLG | 0.735 ± 0.073
GGGNRMRENGRE | 0.667 ± 0.026
GGGPAVEGLVGR | 0.66 ± 0.045
GGGPPARRRRGA | 0.652 ± 0.023
GGGRGGGFSGGV | 0.655 ± 0.014
GGGRGRAGENTR | 0.681 ± 0.049
GGGTVGCVVALA | 0.64 ± 0.017
GGGVHRAVRPGN | 0.653 ± 0.03
GGGVLTWLGENC | 0.702 ± 0.0082
GGGWDAVGVGGP | 0.7505 ± 0.0022
GGGWDVRGGCVG | 0.724 ± 0.0089
GGIGVGGGHMLL | 0.656 ± 0.024
GGLAWSMSGCVG | 0.691 ± 0.076
GGLGGAGAGVVC | 0.694 ± 0.11
GGLLLPCGAFGG | 0.673 ± 0.06
GGLVVGCGGMWV | 0.609 ± 0.0075

Sequence | protein stability index
GGMEGRVACSAQ | 0.74 ± 0.057
GGPGVKRPAMDP | 0.688 ± 0.0071
GGPNKRTGVWGR | 0.657 ± 0.0069
GGRGAGSDVGSL | 0.677 ± 0.04
GGRGGAVEERGG | 0.67 ± 0.0078
GGRGWGGEMGGR | 0.7156 ± 0.0052
GGRGYRIKRKSV | 0.806 ± 0.12
GGRHGSSRTGGY | 0.696 ± 0.018
GGRKKEDEEEEA | 0.651 ± 0.078
GGRPDQARPSRH | 0.741 ± 0.043
GGRRGCFARWAR | 0.697 ± 0.046
GGRRTLFCRFSY | 0.702 ± 0.017
GGRVCGGRVEGQ | 0.684 ± 0.007
GGRVFWGGSRSV | 0.651 ± 0.033
GGRWWGRGVFGG | 0.652 ± 0.028
GGSCGFGQGAGG | 0.685 ± 0.025
GGSCTRNLLRYW | 0.727 ± 0.011
GGSFVLGAALGV | 0.668 ± 0.039
GGSGGRDGLCVG | 0.738 ± 0.049
GGSLVRGAGVRS | 0.686 ± 0.031
GGSWGGGGVFVR | 0.637 ± 0.083
GGTAYFSNRGWA | 0.595 ± 0.036
GGTGGRRGVGHV | 0.655 ± 0.022
GGVEGGGCVGGG | 0.581 ± 0.014
GGVGEFGEGALA | 0.689 ± 0.044

Sequence | protein stability index
GGVGGFGGAGLG | 0.65 ± 0.023
GGVGGLGTLCGG | 0.661 ± 0.051
GGVGWGMVEGWR | 0.685 ± 0.057
GGVGWWWVRGMG | 0.741 ± 0.029
GGVKGTRFLLRG | 0.622 ± 0.051
GGVKVRGGMGPE | 0.684 ± 0.019
GGVRTLVSRHLP | 0.7121 ± 0.0043
GGVSRSRNTRWN | 0.677 ± 0.026
GGVVGVMWGGVR | 0.624 ± 0.029
GGWARGRQGCGG | 0.782 ± 0.011
GGWCGGSGRGAN | 0.63 ± 0.04
GGWGGEVVLWQA | 0.678 ± 0.073
GGWGSRGRVGDI | 0.744 ± 0.045
GGWGTGTSGQGR | 0.715 ± 0.027
GGWRGRAGENTR | 0.698 ± 0.036
GGWWGGGGAWSG | 0.689 ± 0.053
GHNTPRRVMSRC | 0.689 ± 0.037
GHVEGPGDAESS | 0.701 ± 0.071
GHVGFSKVSGKG | 0.664 ± 0.026
GICLLRLDTFNI | 0.667 ± 0.1
GIFSGTDRNLVC | 0.7075 ± 0.0069
